Results published in US20240025992A1 (Janssen / Centocor, published 2024).
One block for each binder: values may come before it.

How the values were obtained:
[1] = target: T1, DL3W34, human DLL4 ECD (Ser27-Pro524), C-10xHis (human, UniProt Q9NR61 27-524); experiment: SPR (ProteOn), antibody captured by anti-Fc; DLL4 at 100 nM and 1000 nM
T1 construct: also called huDLL4; TPP0000494661

[2] = target: T2, DL3W33, Recombinant Human DLL1 ECD (Ser22-Gly540), -DI-C-6xHis (human, UniProt O00548 22-540); experiment: SPR (ProteOn), antibody captured by anti-Fc; DLL1 at 100 nM and 1000 nM
T2 construct: also called huDLL1; TPP000049465
T2 sequence: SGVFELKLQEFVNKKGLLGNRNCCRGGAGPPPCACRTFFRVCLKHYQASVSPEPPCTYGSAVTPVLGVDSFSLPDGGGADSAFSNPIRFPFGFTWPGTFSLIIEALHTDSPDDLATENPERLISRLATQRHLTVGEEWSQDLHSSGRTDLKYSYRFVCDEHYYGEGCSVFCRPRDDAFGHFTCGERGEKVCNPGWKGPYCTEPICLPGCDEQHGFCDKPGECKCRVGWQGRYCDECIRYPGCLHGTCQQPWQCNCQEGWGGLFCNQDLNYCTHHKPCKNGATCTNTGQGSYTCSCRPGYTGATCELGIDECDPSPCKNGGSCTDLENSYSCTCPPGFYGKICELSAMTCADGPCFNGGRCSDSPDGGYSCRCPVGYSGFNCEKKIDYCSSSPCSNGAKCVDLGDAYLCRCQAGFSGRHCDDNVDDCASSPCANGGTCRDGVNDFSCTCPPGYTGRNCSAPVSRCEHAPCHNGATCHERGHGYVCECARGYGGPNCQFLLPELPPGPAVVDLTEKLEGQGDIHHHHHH

[3] = target: T3, DL3W35, extracellular domain of human DLL3 linked to a C-terminal 6xHis-Tag and a linker (human, UniProt Q9NYJ7 27-479); experiment: SPR (ProteOn), antibody captured by anti-Fc, DLL3 (DL3W35) titrated
T3 construct: also called human DLL3 ECD; huDLL3
T3 sequence: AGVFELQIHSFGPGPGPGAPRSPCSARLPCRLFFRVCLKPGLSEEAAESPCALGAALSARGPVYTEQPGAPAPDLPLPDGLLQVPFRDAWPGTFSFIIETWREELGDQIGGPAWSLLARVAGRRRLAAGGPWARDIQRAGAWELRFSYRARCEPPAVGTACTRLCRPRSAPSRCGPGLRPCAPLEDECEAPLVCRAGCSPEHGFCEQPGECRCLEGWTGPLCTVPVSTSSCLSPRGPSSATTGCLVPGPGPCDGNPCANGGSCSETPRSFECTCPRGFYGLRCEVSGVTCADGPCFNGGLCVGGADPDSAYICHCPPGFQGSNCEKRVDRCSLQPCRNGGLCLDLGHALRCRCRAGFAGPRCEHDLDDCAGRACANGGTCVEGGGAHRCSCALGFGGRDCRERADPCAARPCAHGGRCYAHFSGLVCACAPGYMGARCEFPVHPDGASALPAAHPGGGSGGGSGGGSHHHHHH

[4] = target: T4, DL3W37, human DLL3 EGF6 domain, HSA Fusion and C-term 6His tag (human); experiment: MSD plate binding assay on coated DLL3 domain-HSA fusions
T4 construct: Fusion with the C34S variant of human serum albumin at the C-terminus of the DLL3 subdomain, plus 6xHis
T4 sequence (chain, as listed by the source limits assumed): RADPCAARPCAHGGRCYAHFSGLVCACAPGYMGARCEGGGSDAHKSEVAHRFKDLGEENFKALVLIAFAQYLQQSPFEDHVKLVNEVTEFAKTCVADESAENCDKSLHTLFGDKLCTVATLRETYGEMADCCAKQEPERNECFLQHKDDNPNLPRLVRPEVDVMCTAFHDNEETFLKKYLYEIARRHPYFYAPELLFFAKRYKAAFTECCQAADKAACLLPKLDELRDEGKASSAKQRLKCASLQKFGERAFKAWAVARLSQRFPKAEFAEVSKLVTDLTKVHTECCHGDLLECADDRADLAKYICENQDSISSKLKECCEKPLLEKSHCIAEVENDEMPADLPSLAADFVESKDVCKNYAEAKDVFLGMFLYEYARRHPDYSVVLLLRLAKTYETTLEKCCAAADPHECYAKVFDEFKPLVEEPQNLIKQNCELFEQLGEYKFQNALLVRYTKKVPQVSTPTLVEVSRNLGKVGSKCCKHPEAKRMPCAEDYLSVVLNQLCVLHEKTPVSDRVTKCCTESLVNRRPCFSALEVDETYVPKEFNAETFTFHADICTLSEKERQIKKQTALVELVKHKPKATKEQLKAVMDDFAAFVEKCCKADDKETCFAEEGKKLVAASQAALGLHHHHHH

[5] = target: T5, recombinant human DLL3 (Example 9, construct not named) (human, UniProt Q9NYJ7 27-492, limits assumed); experiment: SPR (Biacore T200), antibody captured by goat anti-Fc on a C1 chip, DLL3 titrated
T5 construct: also called DLL3 antigen
T5 sequence: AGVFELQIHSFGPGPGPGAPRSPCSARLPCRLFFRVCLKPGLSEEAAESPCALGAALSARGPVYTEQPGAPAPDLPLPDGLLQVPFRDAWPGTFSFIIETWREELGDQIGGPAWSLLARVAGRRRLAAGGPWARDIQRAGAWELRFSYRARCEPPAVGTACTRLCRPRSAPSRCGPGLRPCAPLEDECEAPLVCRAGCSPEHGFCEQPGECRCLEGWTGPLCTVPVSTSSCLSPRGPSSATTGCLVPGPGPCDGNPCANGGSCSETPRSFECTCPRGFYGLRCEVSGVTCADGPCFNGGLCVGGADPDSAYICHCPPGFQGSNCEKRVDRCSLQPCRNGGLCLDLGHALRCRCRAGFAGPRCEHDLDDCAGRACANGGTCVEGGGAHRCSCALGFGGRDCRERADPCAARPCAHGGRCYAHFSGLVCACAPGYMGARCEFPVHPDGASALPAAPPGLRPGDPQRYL

[6] = target: T6, human DLL3 on DLL3+ tumor cells (human, UniProt Q9NYJ7 27-618); experiment: cell-based or functional assay
T6 sequence: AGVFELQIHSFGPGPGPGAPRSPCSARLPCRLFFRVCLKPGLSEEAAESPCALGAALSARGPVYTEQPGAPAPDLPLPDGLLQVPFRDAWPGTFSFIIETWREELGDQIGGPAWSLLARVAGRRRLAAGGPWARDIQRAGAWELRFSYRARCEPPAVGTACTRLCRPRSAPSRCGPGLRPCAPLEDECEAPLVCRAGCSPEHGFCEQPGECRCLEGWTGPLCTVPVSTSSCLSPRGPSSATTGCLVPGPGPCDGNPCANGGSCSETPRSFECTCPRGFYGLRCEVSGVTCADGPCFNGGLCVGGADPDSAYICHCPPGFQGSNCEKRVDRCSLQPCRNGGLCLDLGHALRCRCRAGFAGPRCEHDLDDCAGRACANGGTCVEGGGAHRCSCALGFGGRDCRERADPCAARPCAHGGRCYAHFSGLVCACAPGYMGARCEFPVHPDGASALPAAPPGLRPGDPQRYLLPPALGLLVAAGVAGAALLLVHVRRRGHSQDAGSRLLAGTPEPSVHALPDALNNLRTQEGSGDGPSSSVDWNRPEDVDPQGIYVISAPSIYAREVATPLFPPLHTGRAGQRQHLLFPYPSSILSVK

T1 sequence (Q9NR61 other isoform, or with tags, fused parts or gaps limits assumed): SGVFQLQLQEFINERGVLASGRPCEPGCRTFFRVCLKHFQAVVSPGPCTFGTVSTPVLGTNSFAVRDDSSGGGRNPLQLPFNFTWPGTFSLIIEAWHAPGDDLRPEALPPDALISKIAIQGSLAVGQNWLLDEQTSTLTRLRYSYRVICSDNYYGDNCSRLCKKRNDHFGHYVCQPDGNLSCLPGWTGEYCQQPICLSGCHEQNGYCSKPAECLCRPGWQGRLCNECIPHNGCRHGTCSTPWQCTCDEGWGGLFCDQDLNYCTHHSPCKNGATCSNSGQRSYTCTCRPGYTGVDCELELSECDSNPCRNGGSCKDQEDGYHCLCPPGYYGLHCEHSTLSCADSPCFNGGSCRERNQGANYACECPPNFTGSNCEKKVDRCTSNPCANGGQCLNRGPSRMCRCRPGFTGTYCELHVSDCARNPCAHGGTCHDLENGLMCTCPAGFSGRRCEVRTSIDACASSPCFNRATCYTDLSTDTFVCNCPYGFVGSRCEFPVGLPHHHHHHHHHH

binding result [1]: no binding (tested: 1000 nM) | binding result [2]: no binding (tested: 1000 nM) | binding result [4]: binds | Kd [3]: 0.0734 nM
B2: DL3B571 (Fc fusion)
scFv: EIVLTQSPGTLSLSPGERATLSCRASQSASSYLAWYQQKPGQAPRLLIYGASSRATGIPDRFSGSGSGTDFTLTISRLEPEDFAVYYCQQYNSSPYTFGQGTKLEIKGGSEGKSSGSGSESKSTGGSQVQLVQSGAEVKKPGASVKVSCKASGHIFISYYIHWVRQAPGQGLEWMGIIDPSGGSKSYAQKFQGRVTMTRDTSTSTVYMELSSLRSEDTAVYYCARQGMIVGTTGDAFDIWGQGTMVTVSS
notes: also called DL3B358 scFv-Fc; not shown: wild-type IgG1 Fc domain

binding result [1]: no binding (tested: 1000 nM) | binding result [2]: no binding (tested: 1000 nM) | binding result [4]: binds | Kd [3]: 0.0668 nM
B3: DL3B570 (Fc fusion)
scFv: EIVLTQSPGTLSLSPGERATLSCRASQSVSRSYLAWYQQKPGQAPRFLIYGASSRATGIPDRFSGSGSGTDFTLTISRLEPEDFAVYYCQQYGTSPITFGQGTRLEIKGGSEGKSSGSGSESKSTGGSQVQLQESGPGLVKPSETLSLSCTVSGDSIRSYYWSWIRQPPGKGLEWIGYIYYSGTTNYKSSLKSRVTISLDTSKKQFSLNLDSVTAADTAVYYCARIGPAGFYFDYWGQGTLVTVSS
notes: also called DL3B332 scFv-Fc; not shown: wild-type IgG1 Fc domain

binding result [1]: no binding (tested: 1000 nM) | binding result [2]: no binding (tested: 1000 nM) | binding result [4]: binds | Kd [3]: 0.147 nM
B4: DL3B569 (Fc fusion)
scFv: DIQMTQSPSSLSASVGDRVTITCRASQGISNYLAWFQQKPGKAPKSLIYAASSLQSGVPSKFSGSGSGTDFTLTISSLQPEDFATYYCQQYNSYPYTFAQGTKLEIKGGSEGKSSGSGSESKSTGGSQVQLVQSGAEVKKPGASVKVSCKASGNTFTNYYIHWVRQAPGQGLEWMGIINPSGGSTSYAQKLQGRMTMTRDTSTSTVYMELSSLRSEDTAVYFCARQGPFIGDAFDIWGQGTMVTVSS
notes: The conflict is not resolved; also called DL3B279 scFv-Fc; not shown: wild-type IgG1 Fc domain

Continued, binder first:

B1: DL3B572 (Fc fusion)
scFv: EVQLVQSGAEVKKPGASVKVSCKASGYTFTTYYIHWVRQAPGQGLEWMGIIDPSGGRTSYAQKFLGRVTMTRDTSTSTVYMELRSLRSEDTAVYYCARGGDGTWYYGMDVWGQGTTVTVSSGGSEGKSSGSGSESKSTGGSDIVMTQSPSFLSASVGDRVTITCRASQGISNYLAWYQQKPGKAPKLLIYAASTLQSGVPSRFSGSGSGTEFTLTISSLQPEDFATYYCQQLNSYPLTFGGGTKVEIK
notes: also called DL3B409 scFv-Fc; not shown: wild-type IgG1 Fc domain
binding result [1]: no binding (tested: 1000 nM) | binding result [2]: no binding (tested: 1000 nM) | Kd [3]: 2.32 nM

B5: DL3B582 (bispecific antibody)
heavy: QVQLVQSGAEVKKPGASVKVSCKASGNTFTNYYIHWVRQAPGQGLEWMGIINPSGGSTSYAQKLQGRMTMTRDTSTSTVYMELSSLRSEDTAVYFCARQGPFIGDAFDIWGQGTMVTVSSASTKGPSVFPLAPSSKSTSGGTAALGCLVKDYFPEPVTVSWNSGALTSGVHTFPAVLQSSGLYSLSSVVTVPSSSLGTQTYICNVNHKPSNTKVDKKVEPKSCDKTHTCPPCPAPEAAGGPSVFLFPPKPKDTLMISRTPEVTCVVVSVSHEDPEVKFNWYVDGVEVHNAKTKPREEQYNSTYRVVSVLTVLHQDWLNGKEYKCKVSNKALPAPIEKTISKAKGQPREPQVYVLPPSREEMTKNQVSLLCLVKGFYPSDIAVEWESNGQPENNYLTWPPVLDSDGSFFLYSKLTVDKSRWQQGNVFSCSVMHEALHNHYTQKSLSLSPG
light: DIQMTQSPSSLSASVGDRVTITCRASQGISNYLAWFQQKPGKAPKSLIYAASSLQSGVPSKFSGSGSGTDFTLTISSLQPEDFATYYCQQYNSYPYTFAQGTKLEIKRTVAAPSVFIFPPSDEQLKSGTASVVCLLNNFYPREAKVQWKVDNALQSGNSQESVTEQDSKDSTYSLSSTLTLSKADYEKHKVYACEVTHQGLSSPVTKSFNRGEC
scFv: DIQMTQSPSSLSASVGDRVTITCRARQSIGTAIHWYQQKPGKAPKLLIKYASESISGVPSRFSGSGSGTDFTLTISSLQPEDFATYYCQQSGSWPYTFGQGTKLEIKGGSEGKSSGSGSESKSTGGSEVQLVESGGGLVKPGGSLRLSCAASGFTFSRYNMNWVRQAPGKGLEWVSSISTSSNYIYYADSVKGRFTFSRDNAKNSLDLQMSGLRAEDTAIYYCTRGWGPFDYWGQGTLVTVSSEPKSSDKTHTCPPCPAPEAAGGPSVFLFPPKPKDTLMISRTPEVTCVVVSVSHEDPEVKFNWYVDGVEVHNAKTKPREEQYNSTYRVVSVLTVLHQDWLNGKEYKCKVSNKALPAPIEKTISKAKGQPREPQVYVYPPSREEMTKNQVSLTCLVKGFYPSDIAVEWESNGQPENNYKTTPPVLDSDGSFALVSKLTVDKSRWQQGNVFSCSVMHEALHNHYTQKSLSLSPG
notes: DLL3 arm: DL3B279-Fab-Fc; CD3 arm: CD3W245-LH-scFv-Fc; IgG1 with L234A/L235A/D265S and heterodimerization mutations; also called CD3W245-LH-scFv; DL3B279-Fab
Kd [5]: 0.016 nM | Cytotoxicity (% Lysis), G361, whole PBMCs, 1:1 ET ratio, 30 nM [6]: 98.9% | Cytotoxicity (% Lysis), HCC1833, whole PBMCs, 1:1 ET ratio, 30 nM [6]: 93.7% | Cytotoxicity (% Lysis), SHP-77, whole PBMCs, 1:1 ET ratio, 30 nM [6]: 87.3%

B6: DL3B583 (bispecific antibody)
heavy: B5 heavy
light: B5 light
scFv: EVQLVESGGGLVKPGGSLRLSCAASGFTFSRYNMNWVRQAPGKGLEWVSSISTSSNYIYYADSVKGRFTFSRDNAKNSLDLQMSGLRAEDTAIYYCTRGWGPFDYWGQGTLVTVSSGGSEGKSSGSGSESKSTGGSDIQMTQSPSSLSASVGDRVTITCRARQSIGTAIHWYQQKPGKAPKLLIKYASESISGVPSRFSGSGSGTDFTLTISSLQPEDFATYYCQQSGSWPYTFGQGTKLEIKEPKSSDKTHTCPPCPAPEAAGGPSVFLFPPKPKDTLMISRTPEVTCVVVSVSHEDPEVKFNWYVDGVEVHNAKTKPREEQYNSTYRVVSVLTVLHQDWLNGKEYKCKVSNKALPAPIEKTISKAKGQPREPQVYVYPPSREEMTKNQVSLTCLVKGFYPSDIAVEWESNGQPENNYKTTPPVLDSDGSFALVSKLTVDKSRWQQGNVFSCSVMHEALHNHYTQKSLSLSPG
notes: DLL3 arm: DL3B279-Fab-Fc; CD3 arm: CD3W245-HL-scFv-Fc; IgG1 with L234A/L235A/D265S and heterodimerization mutations; also called CD3W245-HL-scFv; DL3B279-Fab
Kd [5]: 0.016 nM | Cytotoxicity (% Lysis), G361, whole PBMCs, 1:1 ET ratio, 30 nM [6]: 98.9% | Cytotoxicity (% Lysis), HCC1833, whole PBMCs, 1:1 ET ratio, 30 nM [6]: 88.4% | Cytotoxicity (% Lysis), SHP-77, whole PBMCs, 1:1 ET ratio, 30 nM [6]: 99.8%
